# Measured values taken from PMC7954438.
# Biological target: Sushi domain of IL15Rα (aa1-66) fused to the CH2-CH3 of human IgG1 Fc
# Assay: SEC
# Sequence of Sushi domain of IL15Rα (aa1-66) fused to the CH2-CH3 of human IgG1 Fc (Q13261 1-66): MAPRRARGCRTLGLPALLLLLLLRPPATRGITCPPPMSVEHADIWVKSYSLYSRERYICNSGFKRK
substance,measurement,value
Sushi domain of IL15Rα (aa1-66) fused to the CH2-CH3 of human IgG1 Fc (Fc fusion),stoichiometry N,2
